The test system of data set [1] is HeLa Kyoto. Kind of data set: solubility in G1/S (NP-40 vs SDS abundance) (log2 ratio); higher = more soluble. The conditions noted are these: cell cycle stage: G1/S.
For data set [2], the system named is HeLa Kyoto. Kind of data set: melting temperature (median over replicates), in situ; higher = more thermally stable.
In data set [3] the test system is HeLa Kyoto. Kind of data set: solubility change mitosis vs G1/S (difference of NP-40 vs SDS log2 ratios) (log2 ratio difference); higher = more soluble in mitosis.
For data set [4], the system named is HeLa Kyoto. In words: thermal stability score vs G1/S (z-score of summed log2 fold changes over temperatures); higher = more thermally stable than in G1/S.
[5] abbreviates: cell cycle stage: early G1 (4.5 h after nocodazole release).
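Wherever melting temperature (median over replicates), in situ is given: HeLa Kyoto cells synchronized by double thymidine or nocodazole block, proteins quantified by TMT10plex mass spectrometry, three independent biological replicates.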
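Wherever solubility change mitosis vs G1/S (difference of NP-40 vs SDS log2 ratios) is given: synchronized HeLa Kyoto cells (double thymidine block for G1/S, nocodazole release for mitosis), protein amounts in NP-40 versus SDS lysates quantified by mass spectrometry, three biological replicates.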
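Wherever solubility in G1/S (NP-40 vs SDS abundance) is given: HeLa Kyoto cells arrested at G1/S by double thymidine block, proteins quantified by TMT10plex mass spectrometry in mild NP-40 versus SDS extracts, three biological replicates.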
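Wherever thermal stability score vs G1/S (z-score of summed log2 fold changes over temperatures) is given: synchronized HeLa Kyoto cells, proteins quantified by TMT10plex mass spectrometry, three biological replicates, mitosis taken 0.5 h after nocodazole release, G1/S directly after double thymidine block.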

As for “MKEEVKGIPVRVALRCRPLVPKEISEGCQMCLSFVPGEPQVVVGTDKSFTYDFVFDPSTEQEEVFNTAVAPLIKGVFKGYNATVLAYGQTGSGKTYSMGGAYTAEQENEPTVGVIPRVIQLLFKEIDKKSDFEFTLKVSYLEIYNEEILDLLCPSREKAQINIREDPKEGIKIVGLTEKTVLVALDTVSCLEQGNNSRTVASTAMNSQSSRSHAIFTISLEQRKKSDKNSSFRSKLHLVDLAGSERQKKTKAEGDRLKEGININRGLLCLGNVISALGDDKKGGFVPYRDSKLTRLLQDSLGGNSHTLMIACVSPADSNLEETLNTLRYADRARKIKNKPIVNIDPQTAELNHLKQQVQQLQVLLLQAHGGTLPGSITVEPSENLQSLMEKNQSLVEENEKLSRGLSEAAGQTAQMLERIILTEQANEKMNAKLEELRQHAACKLDLQKLVETLEDQELKENVEIICNLQQLITQLSDETVACMAAAIDTAVEQEAQVETSPETSRSSDAFTTQHALRQAQMSKELVELNKALALKEALARKMTQNDSQLQPIQYQYQDNIKELELEVINLQKEKEELVLELQTAKKDANQAKLSERRRKRLQELEGQIADLKKKLNEQSKLLKLKESTERTVSKLNQEIRMMKNQRVQLMRQMKEDAEKFRQWKQKKDKEVIQLKERDRKRQYELLKLERNFQKQSNVLRRKTEEAAAANKRLKDALQKQREVADKRKETQSRGMEGTAARVKNWLGNEIEVMVSTEEAKRHLNDLLEDRKILAQDVAQLKEKKESGENPPPKLRRRTFSLTEVRGQVSESEDSITKQIESLETEMEFRSAQIADLQQKLLDAESEDRPKQRWENIATILEAKCALKYLIGELVSSKIQVSKLESSLKQSKTSCADMQKMLFEERNHFAEIETELQAELVRMEQQHQEKVLYLLSQLQQSQMAEKQLEESVSEKEQQLLSTLKCQDEELEKMREVCEQNQQLLRENEIIKQKLTLLQVASRQKHLPKDTLLSPDSSFEYVPPKPKPSRVKEKFLEQSMDIEDLKYCSEHSVNEHEDGDGDDDEGDDEEWKPTKLVKVSRKNIQGCSCKGWCGNKQCGCRKQKSDCGVDCCCDPTKCRNRQQGKDSLGTVERTQDSEGSFKLEDPTEVTPGLSFFNPVCATPNSKILKEMCDVEQVLSKKTPPAPSPFDLPELKHVATEYQENKAPGKKKKRALASNTSFFSGCSPIEEEAH [KIF4A]”, the “solubility in G1/S (log2)” value in data set [1] worked out at 0.00342. Also, the melting temperature amounted to 45.7 °C in data set [2] (cell cycle stage: G1/S) and 48.8 °C in data set [2] (cell cycle stage: mitosis). Besides, in data set [3], the “solubility change mitosis (log2)” value amounted to 0.00592. The thermal stability score in data set [4] (setting [5]) stood at 4.91; in data set [4] (cell cycle stage: mitosis) it was 8.64.

“MKENKENSSPSVTSANLDHTKPCWYWDKKDLAHTPSQLEGLDPATEARYRREGARFIFDVGTRLGLHYDTLATGIIYFHRFYMFHSFKQFPRYVTGACCLFLAGKVEETPKKCKDIIKTARSLLNDVQFGQFGDDPKEEVMVLERILLQTIKFDLQVEHPYQFLLKYAKQLKGDKNKIQKLVQMAWTFVNDSLCTTLSLQWEPEIIAVAVMYLAGRLCKFEIQEWTSKPMYRRWWEQFVQDVPVDVLEDICHQILDLYSQGKQQMPHHTPHQLQQPPSLQPTPQVPQVQQSQPSQSSEPSQPQQKDPQQPAQQQQPAQQPKKPSPQPSSPRQVKRAVVVSPKEENKAAEPPPPKIPKIETTHPPLPPAHPPPDRKPPLAAALGEAEPPGPVDATDLPKVQIPPPAHPAPVHQPPPLPHRPPPPPPSSYMTGMSTTSSYMSGEGYQSLQSMMKTEGPSYGALPPAYGPPAHLPYHPHVYPPNPPPPPVPPPPASFPPPAIPPPTPGYPPPPPTYNPNFPPPPPRLPPTHAVPPHPPPGLGLPPASYPPPAVPPGGQPPVPPPIPPPGMPPVGGLGRAAWMR [CCNK]”: in data set [1], the “solubility in G1/S (log2)” value was -0.035. For the same sequence, the melting temperature in data set [2] (cell cycle stage: G1/S) came out at 52.9 °C; in data set [2] (cell cycle stage: mitosis), 52 °C. Also, the “solubility change mitosis (log2)” value in data set [3] was found to be 0.0659. In addition, the thermal stability score in data set [4] (setting [5]) worked out at 0.297; in data set [4] (cell cycle stage: mitosis) it was 1.83.

For “MKGMSHEPKSPSLGMLSTATRTTATVNPLTPSPLNGALVPSGSPATSSALSAQAAPSSSFAAALRKLAKQAEEPRGSSLSSESSPVSSPATNHSSPASTPKRVPMGPIIVPPGGHSVPSTPPVVTIAPTKTVNGVWRSESRQDAGSRSSSGGRERLIVEPPLPQEKAGGPAIPSHLLSTPYPFGLSPSSVVQDSRFPPLNLQRPVHHVVPPSTVTEDYLRSFRPYHTTDDLRMSSLPPLGLDPATAAAYYHPSYLAPHPFPHPAFRMDDSYCLSALRSPFYPIPTPGSLPPLHPSAMHLHLSGVRYPPELSHSSLAALHSERMSGLSAERLQMDEELRREREREREREREREADREREKEREREREKEREQEKEREREKERERELERQREQRAREKELLAAKALEPSFLPVAELHGLRGHATEERGKPSEQLTPTRAEKLKDAGLQAPKPVQHPLHPVPTPHHTVPSLISNHGIFSLPSSSAATALLIQRTNEEEKWLARQRRLRQEKEDRQSQVSEFRQQVLEQHLDMGRPPVPAEAEHRPESTTRPGPNRHEPGGRDPPQHFGGPPPLISPKPQLHAAPTALWNPVSLMDNTLETRRAESHSLHSHPAAFEPSRQAAVPLVKVERVFCPEKAEEGPRKREPAPLDKYQPPPPPPREGGSLEHQPFLPGPGPFLAELEKSTQTILGQQRASLPQAATFGELSGPLKPGSPYRPPVPRAPDPAYIYDEFLQQRRRLVSKLDLEERRRREAQEKGYYYDLDDSYDESDEEEVRAHLRCVAEQPPLKLDTSSEKLEFLQLFGLTTQQQKEELVAQKRRKRRRMLRERSPSPPTIQSKRQTPSPRLALSTRYSPDEMNNSPNFEEKKKFLTIFNLTHISAEKRKDKERLVEMLRAMKQKALSAAVADSLTNSPRDSPAVSLSEPATQQASLDVEKPVGVAASLSDIPKAAEPGKLEQVRPQELSRVQELAPASGEKARLSEAPGGKKSLSMLHYIRGAAPKDIPVPLSHSTNGKSKPWEPFVAEEFAHQFHESVLQSTQKALQKHKGSVAVLSAEQNHKVDTSVHYNIPELQSSSRAPPPQHNGQQEPPTARKGPPTQELDRDSEEEEEEDDEDGEDEEEVPKRKWQGIEAVFEAYQEHIEEQNLERQVLQTQCRRLEARHYSLSLTAEQLSHSVAELRSQKQKMVSERERLQAELDHLRKCLALPAMHWPRGYLKGYPR [GSE1]”, the “solubility in G1/S (log2)” value in data set [1] is 0.0704. Further, the figures for the melting temperature in data set [2] (cell cycle stage: G1/S) and in data set [2] (cell cycle stage: mitosis) were 50.8 °C and 49.9 °C, respectively. The “solubility change mitosis (log2)” value in data set [3] came to 0.0661. Moreover, the thermal stability score is -0.121 in data set [4] (setting [5]) and 0.454 in data set [4] (cell cycle stage: mitosis).

On to “MKIFCSRANPTTGSVEWLEEDEHYDYHQEIARSSYADMLHDKDRNVKYYQGIRAAVSRVKDRGQKALVLDIGTGTGLLSMMAVTAGADFCYAIEVFKPMADAAVKIVEKNGFSDKIKVINKHSTEVTVGPEGDMPCRANILVTELFDTELIGEGALPSYEHAHRHLVEENCEAVPHRATVYAQLVESGRMWSWNKLFPIHVQTSLGEQVIVPPVDVESCPGAPSVCDIQLNQVSPADFTVLSDVLPMFSIDFSKQVSSSAACHSRRFEPLTSGRAQVVLSWWDIEMDPEGKIKCTMAPFWAHSDPEEMQWRDHWMQCVYFLPQEEPVVQGSALYLVAHHDDYCVWYSLQRTSPEKNERVRQMRPVCDCQAHLLWNRPRFGEINDQDRTDRYVQALRTVLKPDSVCLCVSDGSLLSVLAHHLGVEQVFTVESSAASHKLLRKIFKANHLEDKINIIEKRPELLTNEDLQGRKVSLLLGEPFFTTSLLPWHNLYFWYVRTAVDQHLGPGAMVMPQAASLHAVVVEFRDLWRIRSPCGDCEGFDVHIMDDMIKRALDFRESREAEPHPLWEYPCRSLSEPWQILTFDFQQPVPLQPLCAEGTVELRRPGQSHAAVLWMEYHLTPECTLSTGLLEPADPEGGCCWNPHCKQAVYFFSPAPDPRALLGGPRTVSYAVEFHPDTGDIIMEFRHADTPD [PRMT7]”, for which, in data set [1], the “solubility in G1/S (log2)” value is -0.014. The melting temperature in data set [2] (cell cycle stage: G1/S) turned out to be 49.5 °C; in data set [2] (cell cycle stage: mitosis) it was 51 °C. In addition, the “solubility change mitosis (log2)” value in data set [3] was -0.0142. Besides, the values for the thermal stability score in data set [4] (setting [5]) and in data set [4] (cell cycle stage: mitosis) were 0.131 and 1.01, respectively.

Source of the values: the supplement of paper PMC5998384.
